Where no end group is shown, it is not given here.

Assay [1] addresses T1, maltose binding protein fused SUS6 (Arabidopsis thaliana, UniProt Q9FX32 1-942).
T1 construct: SUCROSE SYNTHASE 6 (SUS6), Arabidopsis thaliana, At1G73370; also called MBP-SUS6; pET-MBP-SUS6; source: E. coli Rosetta, purified (amylose resin); not shown: MBP, N-terminal, kept
As to the kind of experiment: pull-down; 1 μg biotinylated peptide with 1 μg MBP or MBP fusion protein in 300 μL binding buffer (50 mM Tris pH 7.5, 150 mM NaCl, 0.05% NP-40), 4 °C overnight; Dynabeads MyOne Streptavidin C1; immunoblot with MBP antibody. Conditions: both partners purified. Background: Immunoblotting shows a protein as a band on a membrane.

The target in a further assay is free MBP (UniProt P0AEX9 27-396 = MBP). The description is as above. Conditions: both partners purified.

T1 sequence (Q9FX32 whole entry, the tested form may be a part): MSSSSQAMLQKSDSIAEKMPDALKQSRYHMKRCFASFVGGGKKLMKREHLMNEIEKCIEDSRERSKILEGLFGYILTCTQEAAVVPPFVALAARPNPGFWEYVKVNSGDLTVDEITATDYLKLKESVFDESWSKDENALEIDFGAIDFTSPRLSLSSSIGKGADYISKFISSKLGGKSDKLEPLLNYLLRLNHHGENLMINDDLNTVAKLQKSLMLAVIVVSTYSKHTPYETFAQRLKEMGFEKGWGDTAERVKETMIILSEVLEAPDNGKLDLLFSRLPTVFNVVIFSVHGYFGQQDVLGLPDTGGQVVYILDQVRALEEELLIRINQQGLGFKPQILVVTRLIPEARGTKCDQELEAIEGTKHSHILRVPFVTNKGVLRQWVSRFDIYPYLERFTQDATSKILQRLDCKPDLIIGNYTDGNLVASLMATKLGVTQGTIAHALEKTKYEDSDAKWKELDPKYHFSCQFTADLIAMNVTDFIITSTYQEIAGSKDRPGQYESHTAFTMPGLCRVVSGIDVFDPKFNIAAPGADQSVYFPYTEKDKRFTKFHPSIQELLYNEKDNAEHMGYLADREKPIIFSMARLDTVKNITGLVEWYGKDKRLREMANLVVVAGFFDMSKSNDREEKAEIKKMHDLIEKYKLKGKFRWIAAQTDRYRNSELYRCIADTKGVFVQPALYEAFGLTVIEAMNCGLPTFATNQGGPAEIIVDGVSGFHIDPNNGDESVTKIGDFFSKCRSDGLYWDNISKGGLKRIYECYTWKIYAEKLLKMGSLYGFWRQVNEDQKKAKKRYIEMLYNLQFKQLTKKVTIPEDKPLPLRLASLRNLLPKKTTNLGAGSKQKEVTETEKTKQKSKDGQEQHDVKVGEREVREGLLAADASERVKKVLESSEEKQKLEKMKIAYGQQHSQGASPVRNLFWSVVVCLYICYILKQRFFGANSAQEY

B1: biotinylated C-terminal tail of PDLP6 (peptide)
peptide: AKSCERGKGGK
modifications: also: biotin (position not given here)
notes: C-terminal tail of PDLP6, which faces the cytoplasmic sleeve; Arabidopsis thaliana, At2g01660; also called PDLP6-CT-biotin; source: synthetic peptide, bought: PEPTIDE 2.0
With B1, the binding result in assay [1] was “binds”.

B2: biotinylated C-terminal tail of PDLP7 (peptide)
peptide: RGVCSRGGDFSILHSFTLI
modifications: also: biotin (position not given here)
notes: C-terminal tail of PDLP7, Arabidopsis thaliana, At5G37660; also called PDLP7-CT-biotin; source: synthetic peptide, bought: PEPTIDE 2.0
With B2, the binding result with free MBP is “binds”.

B3: biotinylated C-terminal tail of PDLP5 (peptide)
peptide: GKCCRKLQDEKWCK
modifications: cysteine pairing not given here; also: biotin (position not given here)
notes: C-terminal tail of PDLP5, Arabidopsis thaliana, At1g70690; also called PDLP5-CT-biotin; source: synthetic peptide, bought: PEPTIDE 2.0
For the molecule B3, the binding result in assay [1] was “binds”.

(Values after paper PMC11371196, “PLASMODESMATA-LOCATED PROTEIN 6 regulates plasmodesmal function in Arabidopsis vasculature” (The Plant Cell, 2024).)
